Data on 1 molecule can be found in patent US20090022663A1.

By Kd is commonly meant the free concentration of one partner at which half of the binding sites on the other are occupied at equilibrium, for simple one-to-one binding. A higher Kd goes with a looser complex.

The target of this test is 161P2F10B variant 1 (human 161P2F10B), on the cell surface (human) (UniProt O14638). Put plainly: FACS titration on KU-812 cells, one site binding fit.

B1: H16-1.92.1.1 (antibody, part only; not given: light chain, V domains shown, part only)
VH: EVLLVESGPGLVKPSETLSLTCTVSGGSISSSSYFWGWIRQPPGKGLEWIGSIYYSGNTYYNPSLKSRVTISVDTSKNRFSLKLSSVTAADTAVYCCASATTVTTAFDIWGQGTMVTVSSASTKGPSVFPLAPSS
For the molecule B1, the Kd is 4.73 nM.
